Experimental data as given in the supplement of paper PMC10567573.

B1: FEM1B (parent)
chain: TLAALLLNRSESDIRYLLGYVSQQ

Variants of: B1
Test: protein stability index of a GFP-peptide fusion (GPS, HEK-293T) (PSI 1-6); higher = more stable
Settings: c terminus: a fixed tail appended
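Also: lentivirally expressed fusions sorted by FACS into six bins by GFP to DsRed ratio, PSI derived from sequencing read proportions per bin multiplied by bin number.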

Protein stability index of substitutions, site by site:
L5: G 1.12, D 2.45, H 2.62, F 5.25, Y 3.74, K 1.44, I 3.24, T 2.71, V 3.12, W 2.25, E 2.14, S 2.6, Q 3.07, M 3.24, P 1.79, C 2.4, A 2.03, R 3.37, N 1.76
R9: P 1.92, I 3.29, S 2.7, V 2.67, Y 2.52, C 2.13, F 2.9, H 1.58, T 2.94, N 2.57, Q 1.96, L 3.24, D 2.9, W 2.79, E 1.98, G 3.4, K 1.96
S12: D 2.71, G 3.69, P 3.27, I 3.15, Y 2.93, Q 2.69, N 2.79, L 2.36, M 2.33, V 1.73, T 2.18, E 3.18, H 2.48, A 2.19, R 2.36, W 3.62, K 3.14, F 2.89
L6: T 1.76, N 1.8, P 2.21, F 2.65, D 2.5, E 1.7, C 1.21, A 2.12, V 2.22, R 1.76, S 1.82, Q 1.38, H 1.85, G 1.97, K 2.37, I 2.88, M 2.56
S10: Y 2.41, C 2.4, F 3.1, I 3.57, M 1.87, A 3.37, V 1.87, G 1.53, K 2.28, W 3.07, P 3.81, E 3.2, H 4.65, Q 4.48, N 2.29, L 3.05
Y16: T 3.16, N 2.17, S 1.81, G 3.2, M 2.45, K 2.83, W 4.55, R 2.06, E 2.06, Q 3.05, L 2.01, A 4.57, P 2.95, D 2.38, C 2.91, H 1.88, F 3.75, V 2.24, I 1.57
E11: F 3.19, V 2.96, K 2.83, M 3.08, N 3.2, H 3.15, W 2.68, A 2.44, T 2.44, G 3.03, I 4.17, S 3.2, P 2.08, Q 1.99, C 3.04, D 2.49, Y 3.35, R 3.13, L 3.34
R15: E 2.72, V 1.75, I 2.81, A 2.31, Y 3.31, Q 1.61, D 2.12, H 2.4, F 3.37, C 2.14, S 3.23, T 3.37, K 2.3, L 3.36, P 2.03, N 2.55, M 3.35
S22: T 2.5, D 2.48, Q 3.56, I 2.42, G 2.98, V 2.25, F 2.73, Y 2.7, H 2.55, R 2.37, L 3.22, K 2.77, C 2.87, P 2.53, N 1.56, A 3.04, W 3.27
L18: M 1.94, I 2.8, C 2.45, D 1.64, R 3.15, W 3.01, P 2.69, K 3.43
